Measured values as given in patent US8415106B2, “Cell-based screen for agents useful for reducing neuronal demyelination or promoting neuronal remyelination” (Myelin Repair Foundation, Inc., priority 2005, dated 2013).

Legend:
[1] = tested on: oligodendrocytes and myelin in the corpus callosum; test: Cuprizone remyelination in double transgenic mice on PERK+/+ or PERK+/− background; assay type: in vivo; details: for remyelinated axons: 9 weeks
Excerpt: The involvement of the ER stress response in the reduction caused by IFN-γ to remyelinate lesions was examined in transgenic mice that were generated to be heterozygous for a loss of function mutation in pancreatic ER kinase (PERK) (Harding, et al., (2001) Mol Cell 7:1153-1163), and to be temporally regulated for expressing INF-γ in the CNS. TRE/IFN-γ mice were first crossed with PERK+/− mice (Harding, et al. (2001) Mol. Cell 7: 1153-1163) on the C57BL/6 background to generate mice the carry the PERK mutation, and the resulting progeny were crossed to GFAP/tTA mice to obtain transgenic mice that were heterozygous for the PERK mutation. The effect of PERK on remyelination in the presence or absence of INF-γ was evaluated as evaluated as a function of the level of myelination of oligodendrocytes in remyelinating lesions and the number of oligodendrocytes present in the remyelinating lesion.
The extent of remyelination was assessed as described in the previous examples in the corpus callosum of PERK+/+ and PERK+/− mice that were made to express INF-γ (DOX−PERK+/+ and DOX− PERK+/−), and in mice in which the expression of INF-γ was repressed (DOX+PERK+/+ and DOX+PERK+/−). Remyelination was determined by electron microscopy, and was related to the number of CC1 positive oligodendrocytes and the level of caspase-3 expression in the corpus callosum of all animals. The level of caspase-3 was determined by immunohistochemical methods using anti capsase antibody (active-casoase-3 antibody, 1:50; Cel Signaling Technology) and according to the method described in Example 1. Demyelination was induced in six-week-old GFAP/tTA; TRE/IFN-γ double transgenic mice on a PERK+/− background that had been maintained on doxycycline, by simultaneously treating the mice with 0.2% cuprizone and releasing them from doxycycline (DOX−PERK+/−). Remyelination was allowed to occur by withdrawing cuprizone at week 6.

[2] = tested on: developing oligodendrocytes and myelin; test: IFN-γ-overexpressing mice crossed to PLP/SOCS1 mice: tremor, oligodendrocyte density, G ratio, unmyelinated axons at postnatal day 21; assay type: in vivo; details: for Incidence of tremor: 172 × PLP/SOCS1 system
Excerpt: The transgenic mice MBP/IFN-γ and GFAP/tTA×TRE/IFN-γ (lines 184/110 and 184/67) that overexpress IFN-γ in the CNS have been described elsewhere (Corbin et al., 1996; Gao et al., 2000; Lin et al., 2004, 2005). Briefly, MBP/IFN-γ mice are transgenic animals in which IFN-γ expression is driven by the myelin basic protein (MBP) transcriptional control region (Gao et al., 2000). GFAP/tTA×TRE/IFN-γ are double-transgenic mice obtained by mating single-transgenic GFAP/tTA to single-transgenic TRE/IFN-γ (lines 110 and 67) mice. The two TRE/IFN-γ mouse lines, line 110 and line 67, used in the experiments produce different amounts of IFN-γ when crossed to GFAP/tTA mice (184/110 and 184/67) (Lin et al., 2004, 2005). GFAP/tTA×TRE/IFN-γ is a tetracycline-off-inducible system in which the glial fibrilary acidic protein (GFAP) transcriptional control region drives the expression of tTA, which in turn, binds to the TRE (tet responsive element) and initiates the expression of IFN-γ. Administration of doxycycline suppresses tTA DNA binding and IFN-γ expression, and doxycycline removal allows for temporally-controlled induction of IFN-γ expression (Gao et al., 1999).
IFN-γ-overexpressing mice were crossed to the PLP/SOCS1 mice in double-transgenic, (MBP/IFN-γ×PLP/SOCS1) and triple-transgenic (GFAP/tTA×TRE/IFN-γ×PLP/SOCS1) mating systems. MBP/IFN-γ×PLP/SOCS1 (172×PLP/SOCS1) mating was performed according to a standard mating protocol. The GFAP/tTA×TRE/IFN-γ×PLP/SOCS1 matings were performed in a 2-step mating process: GFAP/tTA mice were initially crossed to PLP/SOCS1 mice, and double-positive (184×PLP/SOCS1) offspring were then crossed to the TRE/IFN-γ lines 110 and 67, separately. This second mating step was performed according to the previously described “tet-off” protocol. Doxycycline 0.05 mg/ml (Sigma-Aldich) was added to the water of impregnated female mice until embryonic day 14, after which the animals were switched back to normal water, thereby allowing initiation of IFN-γ transcription, which peaks during the postnatal period (Lin et al., 2005).
The litters of the mating systems (F1 generation) were examined daily and sacrificed at postnatal day 21. Clinical evaluation included behavioral observation and challenged ladder walking to elicit tremor. Histological examination included quantitation of the number and density of oligodendrocytes and examination of the myelination patterns. Brain tissue was simultaneously obtained from each animal at the time of sacrifice to verify and measure the expression of IFN-γ and Flag-SOCS1 (see below). The clinical and histological findings were subsequently stratified according to genotype. All animal procedures were conducted in compliance with the National Institutes of Health Guide for Care and Use of Laboratory Animals and were approved by the Institutional Animal Care and Use Committee at The University of Chicago.
Oligodendrocyte cell density was assessed digitally using Axiovision software, at postnatal day 21, as previously described (Lin et al., 2005). The brains were sectioned sagittally through the corpus callosum dividing the brain in two symmetrical halves. Ten frozen sections from each half were prepared at 7 μm thickness, and numbered in the sequence of their preparation. The brains of three animals per study group were prepared in this fashion. Following the CC1 immunostaining the corresponding area of corpus callosum of each section was digitally selected and the corresponding total area obtained. CC1 cell counting was performed manually within the selected areas of each section, and the number of CC1 positive cells per square area (mm^2) calculated. The results were presented as mean±SD of CC1 (+) cells/mm^2 with n=3 animals per study group. […]

[3] = 184/67×PLP/SOCS1 mice (IFN-γ and SOCS1)
[4] = 184/110×PLP/SOCS1 mice (IFN-γ and SOCS1)

B1: IFN-γ: pleotropic cytokine secreted by activated T lymphocytes and natural killer cells; recombinant rat IFN-γ added to cultures or transgenically expressed in mouse CNS (protein, UniProt P01581 23-156, looked up)
Interferon gamma: QGTLIESLESLKNYFNSSSMDAMEGKSLLLDIWRNWQKDGNTKILESQIISFYLRLFEVLKDNQAISNNISVIESHLITNFFSNSKAKKDAFMSIAKFEVNNPQIQHKAVNELIRVIHQLSPESSLRKRKRSRC
With B1 as the molecule, how does the remyelinated axons ([1]; DOX−PERK+/+ mice, DOX+ 54.0%±4.3%) read?
Its remyelinated axons is 31.1%±7.6%.

What about the “number of CC1 positive oligodendrocytes” value ([1]; DOX−PERK+/+ mice, week 9, DOX+PERK+/+ 283.2±27.7) of the same molecule?
Its value is 123.2±27.5 /0.04 mm^2.

What about the remyelinated axons ([1]; DOX−PERK+/− mice, 3 weeks after cuprizone removal) of the same molecule?
The remyelinated axons was 15.6%±7.6%.

And the “number of oligodendrocytes positive for caspase-3, DOX−PERK+/− versus DOX−PERK+/+” value ([1]; corpus callosum, week 9)?
Its value is 2.3 times.

What about the Incidence of tremor ([2]; mice expressing IFN-γ only) of the same molecule?
Its Incidence of tremor is 0%.

And the Incidence of tremor ([2]; mice expressing both IFN-γ and SOCS1)?
The Incidence of tremor was 0%.

What about the “G ratio (axon diameter/fiber diameter ratio)” value ([2]; 184/67 mice (IFN-γ only)) of the same molecule?
The value was 0.95±0.04.

And the “percentage of unmyelinated axons” value ([2]; 184/67 mice (IFN-γ only))?
The value was 57%±7.

And the oligodendrocytes lost ([2]; 184/67 mice (IFN-γ only) versus wild-type)?
Its oligodendrocytes lost is “approximately 40%”.

What about the oligodendrocyte density ([2]; 184/67 mice (IFN-γ only), wild-type 144±5) of the same molecule?
Its oligodendrocyte density is 79±9 CC1 (+) cells/mm^2.

What about the “G ratio (axon diameter/fiber diameter ratio)” value [2, 3] of the same molecule?
The value was 0.82±0.08.

What about the “percentage of unmyelinated axons” value [2, 3] of the same molecule?
The value was 17%±4.5.

And the oligodendrocytes lost ([2]; 184/67×PLP/SOCS1 mice (IFN-γ and SOCS1) versus PLP/SOCS1)?
Its oligodendrocytes lost is “approximately 15%”.

And the oligodendrocyte density ([2]; 184/67×PLP/SOCS1 mice (IFN-γ and SOCS1), PLP/SOCS1 142±5)?
The oligodendrocyte density was 112±7 CC1 (+) cells/mm^2.

And the “percentage of unmyelinated axons” value ([2]; 184/110 mice (IFN-γ only))?
Its value is 41%±6.

And the oligodendrocytes lost ([2]; 184/110 mice (IFN-γ only) versus wild-type)?
The oligodendrocytes lost was “approximately 20%”.

And the “G ratio (axon diameter/fiber diameter ratio)” value ([2]; 184/110 mice (IFN-γ only), hypomyelination defined as G ratio >0.8)?
Its value is 0.89±0.02.

And the oligodendrocyte density ([2]; 184/110 mice (IFN-γ only), wild-type 146±6)?
Its oligodendrocyte density is 115±8 CC1 (+) cells/mm^2.

And the “G ratio (axon diameter/fiber diameter ratio)” value [2, 4]?
Its value is 0.75±0.03.

What about the “percentage of unmyelinated axons” value [2, 4] of the same molecule?
The value was 13%±3.

What about the oligodendrocytes lost ([2]; 184/110×PLP/SOCS1 mice (IFN-γ and SOCS1) versus PLP/SOCS1) of the same molecule?
Its oligodendrocytes lost is “approximately 8%”.

What about the oligodendrocyte density ([2]; 184/110×PLP/SOCS1 mice (IFN-γ and SOCS1), PLP/SOCS1 141±6) of the same molecule?
Its oligodendrocyte density is 129±6 CC1 (+) cells/mm^2.

What about the “percentage of unmyelinated axons” value ([2]; MBP/IFN-γ×PLP/SOCS1 (172×PLP/SOCS1) littermates, regardless of genotype) of the same molecule?
The value was “less than 9%”.
